Results from patent publication US6177557.

Assays:
[1] = target: thrombin (alpha) (human) (UniProt P00734+P00734); experiment: filter
[2] = target: basic fibroblast growth factor (bFGF) (UniProt P09038); experiment: filter
[3] = bulk pool, text also says after 12 rounds, apparently unselected

basic fibroblast growth factor (bFGF), sequence (P09038 135-288): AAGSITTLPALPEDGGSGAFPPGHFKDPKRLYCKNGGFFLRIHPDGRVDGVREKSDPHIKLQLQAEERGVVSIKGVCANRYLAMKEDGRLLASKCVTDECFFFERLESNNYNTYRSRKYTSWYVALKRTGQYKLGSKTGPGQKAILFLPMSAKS

Q: For “AGATGCCTGTCGAGCATGCTNGTAGCTAAACTGCTTTGTCGACGGG [30N DNA pool after SELEX]”, which Kd ([1]; pool after 12 rounds) is on record?
A: 0.008 µM

Q: For “GGGAGGACGAUGCGGNNNNNNNNNNNNNNNNNNNNNNNNNNNNNNNNNNNNNNNNNNNNNNNNNNCAGACGACUCGCCCGA [2'-NH2 starting random RNA B]”, which Kd ([2]; 2'-NH2 pyrimidines, unselected pool, +/-140) is on record?
A: 0.24 µM

Q: How did the Kd ([1]; pool after 12 rounds) turn out when “AGATGCCTGTCGAGCATGCTNGTAGCTAAACTGCTTTGTCGACGGG [60N DNA pool after SELEX]” was run?
A: 0.008 µM

Q: With “AGATGCCTGTCGAGCATGCTNGTAGCTAAACTGCTTTGTCGACGGG [bulk 60N DNA]” as the sequence, how does the Kd [1, 3] read?
A: 5 µM

Q: How did the Kd [1, 3] turn out when “AGATGCCTGTCGAGCATGCTNGTAGCTAAACTGCTTTGTCGACGGG [bulk 30N DNA]” was run?
A: 8 µM

Q: “GGGAGGACGATGCGGGGGGCTATGCGATACAGTCGCGNTANGCTAGGCGCAGACGAGCGGGA [m26]” was tested. Which Kd ([2]; PBS) did it give?
A: 0.0016 µM

Q: Which Kd ([2]; unselected pool, PBS, 37 C) does the source give for “GGGAGAUGCCUGUCGAGCAUGCUGNNNNNNNNNNNNNNNNNNNNNNNNNNNNNNGUAGCUAAACAGCUUUGUCGACGGG [random RNA B (unmodified)]” here?
A: 0.56 µM

Q: How did the Kd ([2]; round 11 pool) turn out when “GGGAGGACGATGCGGNCAGACGACGACGGGGA [DNA SELEX pool Experiment 3 round 11]” was run?
A: 0.004 µM

Q: Which Kd ([2]; round 10 pool) does the source give for “GGGAGGACGATGCGGNCAGACGACGACGGGGA [DNA SELEX pool Experiment 3 round 10]” here?
A: 0.0025 µM

Q: How did the Kd ([2]; unselected pool, PBS, 37 C) turn out when “GGGAGCUCAGAAUAAACGCUCAANNNNNNNNNNNNNNNNNNNNNNNNNNNNNNUUCGACAUGAGGCCCGGAUCCGGC [random RNA A (unmodified)]” was run?
A: 0.3 µM

Q: “GGGAGGACGATGCGGNCAGACGACGACGGGGA [DNA random pool 30N7.1PS (round 0)]” was tested. Which Kd ([2]; round 0 pool) did it give?
A: 0.3 µM

Q: How did the Kd ([2]; 2'-NH2 pyrimidines, unselected pool, +/-11) turn out when “GGGAGACAAGAAUAACGCUCAANNNNNNNNNNNNNNNNNNNNNNNNNNNNNNUUCGACAGGAGGCUCACAACAGGC [2'-NH2 starting random RNA A]” was run?
A: 0.065 µM
